Reference: PMC10903946 (Genes & Development, 2024)

Biological target: T1, mCherry-LacR-MITF (human, UniProt O75030-9 1-419)
T1 sequence: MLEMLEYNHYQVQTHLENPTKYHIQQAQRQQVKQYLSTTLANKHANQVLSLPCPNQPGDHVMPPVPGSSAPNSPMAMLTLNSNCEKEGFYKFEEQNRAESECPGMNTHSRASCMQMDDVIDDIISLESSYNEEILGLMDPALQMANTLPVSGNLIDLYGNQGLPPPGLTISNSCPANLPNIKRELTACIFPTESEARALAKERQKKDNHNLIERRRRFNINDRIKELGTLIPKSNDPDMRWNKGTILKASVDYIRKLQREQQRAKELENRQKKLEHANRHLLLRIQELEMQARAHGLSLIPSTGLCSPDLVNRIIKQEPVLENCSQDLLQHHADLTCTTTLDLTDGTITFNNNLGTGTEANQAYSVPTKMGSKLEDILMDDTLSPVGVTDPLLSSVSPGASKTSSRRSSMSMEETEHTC
Assay: LacR/LacO nuclear tethering assay

B1: NBS1-GFP (natural protein)
chain: MWKLLPAAGPAGGEPYRLLTGVEYVVGRKNCAILIENDQSISRNHAVLTANFSVTNLSQTDEIPVLTLKDNSKYGTFVNEEKMQNGFSRTLKSGDGITFGVFGSKFRIEYEPLVACSSCLDVSGKTALNQAILQLGGFTVNNWTEECTHLVMVSVKVTIKTICALICGRPIVKPEYFTEFLKAVESKKQPPQIESFYPPLDEPSIGSKNVDLSGRQERKQIFKGKTFIFLNAKQHKKLSSAVVFGGGEARLITEENEEEHNFFLAPGTCVVDTGITNSQTLIPDCQKKWIQSIMDMLQRQGLRPIPEAEIGLAVIFMTTKNYCDPQGHPSTGLKTTTPGPSLSQGVSVDEKLMPSAPVNTTTYVADTESEQADTWDLSERPKEIKVSKMEQKFRMLSQDAPTVKESCKTSSNNNSMVSNTLAKMRIPNYQLSPTKLPSINKSKDRASQQQQTNSIRNYFQPSTKKRERDEENQEMSSCKSARIETSCSLLEQTQPATPSLWKNKEQHLSENEPVDTNSDNNLFTDTDLKSIVKNSASKSHAAEKLRSNKKREMDDVAIEDEVLEQLFKDTKPELEIDVKVQKQEEDVNVRKRPRMDIETNDTFSDEAVPESSKISQENEIGKKRELKEDSLWSAKEISNNDKLQDDSEMLPKKLLLTEFRSLVIKNSTSRNPSGINDDYGQLKNFKKFKKVTYPGAGKLPHIIGGSDLIAHHARKNTELEEWLRQEMEVQNQHAKEESLADDLFRYNPYLKRRR
median enrichment of GFP at the mCherry dot over the rest of the nucleus: 7 fold
